Experimental data as given in patent publication US20220227882A1 (TRUSTEES OF TUFTS COLLEGE, published 2022).

What was measured:
R431A = biological target: T1, R431A (Homo sapiens, UniProt P78325); assay: high-throughput flow cytometry, HEK293 cells with mutant ADAM8, high stringency; range in parentheses; dotted box
T1 construct: expressed on HEK293 cells; also called human ADAM8 point mutant R431A
T1 sequence (ADAM8, looked up): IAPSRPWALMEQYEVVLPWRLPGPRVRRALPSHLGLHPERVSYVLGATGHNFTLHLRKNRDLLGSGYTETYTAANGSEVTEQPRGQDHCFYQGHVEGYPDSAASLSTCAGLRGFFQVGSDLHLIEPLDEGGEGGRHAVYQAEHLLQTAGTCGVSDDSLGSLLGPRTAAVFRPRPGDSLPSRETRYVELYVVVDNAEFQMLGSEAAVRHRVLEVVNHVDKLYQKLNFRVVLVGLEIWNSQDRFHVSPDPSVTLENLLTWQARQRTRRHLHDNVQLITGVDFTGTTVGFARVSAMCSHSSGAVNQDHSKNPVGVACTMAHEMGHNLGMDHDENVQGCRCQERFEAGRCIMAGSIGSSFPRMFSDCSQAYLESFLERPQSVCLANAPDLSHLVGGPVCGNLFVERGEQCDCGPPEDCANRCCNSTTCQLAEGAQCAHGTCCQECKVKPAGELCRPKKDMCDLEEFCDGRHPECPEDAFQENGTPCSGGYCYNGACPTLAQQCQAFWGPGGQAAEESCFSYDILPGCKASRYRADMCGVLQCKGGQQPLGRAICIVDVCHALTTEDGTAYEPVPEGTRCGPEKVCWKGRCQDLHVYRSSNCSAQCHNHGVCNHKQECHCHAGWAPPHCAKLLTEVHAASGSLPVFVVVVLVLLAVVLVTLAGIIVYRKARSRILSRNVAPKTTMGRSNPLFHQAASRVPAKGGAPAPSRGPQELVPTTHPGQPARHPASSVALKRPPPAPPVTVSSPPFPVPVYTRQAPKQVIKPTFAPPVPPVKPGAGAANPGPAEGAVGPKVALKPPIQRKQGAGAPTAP
Protocol: (§1) A variety of experimental parameters were optimized for high-throughput flow cytometry including blocking buffer, and primary and secondary antibody concentrations, to identify the optimal conditions for screening. Through these studies ADP2 and ADP13 were determined to be high affinity binding antibodies.
(§2) Thus, for these studies antigen-binding fragments (Fabs) of ADP2 and ADP13, which bind with lower affinity than the full antibody, were generated. In addition, higher binding stringency conditions were tested, such as increased pH, salinity, and temperature, and/or increased washing, to weaken binding sufficiently to allow identification of critical binding residues in flow cytometry. The final experimental flow cytometry conditions were: primary antibody incubation with ADP2 Fab (0.50 μg/ml), ADP13 Fab (5.00 μg/ml) and Control Ab (0.16 μg/ml) for 60 minutes in flow cytometry buffer containing 10% goat serum in PBS (Ca²⁺ and Mg²⁺ free). […] Samples were washed three times after primary antibody incubation and twice after secondary antibody incubation with PBS (Ca²⁺ and Mg′ free). Next, HEK293 cells expressing WT or mutated ADAM8 proteins or EV DNA were incubated with ADP2 or ADP13 Fabs or Control Ab at their optimal concentrations. Fab binding was detected using Alexa Fluor 488-conjugated secondary antibodies and mean cellular fluorescence determined using the Intellicyt iQue flow cytometry platform. […] This counter-screen strategy facilitates the exclusion of mutants that are locally misfolded or that have an expression defect. Binding of each test Fab to each mutant clone in the alanine scanning library was determined, in duplicate, by high-throughput flow cytometry.

G445A = biological target: T2, G445A (Homo sapiens, UniProt P78325); assay: as above
T2 construct: expressed on HEK293 cells; also called human ADAM8 point mutant G445A
T2 sequence (ADAM8, looked up): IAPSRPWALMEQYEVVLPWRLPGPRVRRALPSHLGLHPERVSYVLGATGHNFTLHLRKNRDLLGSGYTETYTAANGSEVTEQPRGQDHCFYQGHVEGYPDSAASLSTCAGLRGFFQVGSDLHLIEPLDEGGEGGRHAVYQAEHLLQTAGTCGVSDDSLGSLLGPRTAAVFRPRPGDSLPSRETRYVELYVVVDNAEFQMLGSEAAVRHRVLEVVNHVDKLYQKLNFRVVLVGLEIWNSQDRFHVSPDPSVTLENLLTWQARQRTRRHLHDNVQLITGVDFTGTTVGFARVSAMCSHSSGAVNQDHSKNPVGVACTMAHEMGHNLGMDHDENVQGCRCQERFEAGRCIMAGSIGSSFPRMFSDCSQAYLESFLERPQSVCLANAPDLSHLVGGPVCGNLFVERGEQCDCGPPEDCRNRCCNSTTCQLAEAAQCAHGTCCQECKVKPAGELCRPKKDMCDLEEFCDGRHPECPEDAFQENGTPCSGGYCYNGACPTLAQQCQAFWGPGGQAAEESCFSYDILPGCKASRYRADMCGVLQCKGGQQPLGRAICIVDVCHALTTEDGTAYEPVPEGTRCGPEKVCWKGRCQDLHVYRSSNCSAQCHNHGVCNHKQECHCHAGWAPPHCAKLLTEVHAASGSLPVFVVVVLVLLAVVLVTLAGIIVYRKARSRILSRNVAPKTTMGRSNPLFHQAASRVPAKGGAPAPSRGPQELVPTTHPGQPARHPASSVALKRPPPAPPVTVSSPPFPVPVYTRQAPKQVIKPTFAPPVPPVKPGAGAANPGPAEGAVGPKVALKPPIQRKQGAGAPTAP
Protocol: as §1, §2

- Binding Reactivity (% WT) (R431A): 26.2 % WT
- Binding Reactivity (% WT) (G445A): 30.7 % WT
B1: ADP2 Fab (Fab, V domains shown)
VH: EVKLVESGGGLVQPGGSLSLSCAASGFSFPDYYMSWVRQPPGKALEWLGFIRDSANGYTTEYIASVKGRFTFSRDNSQSILYLQMNALRAEDSATYYCARYSRYYGMDYWGQGTSVTVSS
VL: SIVMTQTPKILLVSAGDRVTITCKASQTVNYDVAWYQQKPGQSPKPVIYFASNRYTGVPDRFTGSGFGTDFTFTISTVQAEDLAVYFCQQDYSAPWTFGGGTKLEIK
